Results taken from a protein production outcome set (Wang et al. 2014).

Test: label from the status in PepcDB records

Row | Sequence | protein production
1 | MSNALKSIDFRTNKSKDAVIVVELASPAAIVDVKRVQEGLSIDLMNTSVKDEQLYLLDVKDFATVVESVEVFRDTSTTRLVAYIDEEYTHDYRLTGRYLEITVSKLKPNEKVPDKSILEKEGKLISINFQDIPVRNVLQLIADYNQFNLVVSDSVEGNLTLRLDGVPWQQVLDIILQVKGLDKRVDGNVILVAPTDELDLREKQQLEKQKLTEEMGELSSEIIKVNFAKASDIAEMINGEGNISMLSERGSMTIDERTNSLLIRELPENIAVIREIIESLDIPVKQVQIEARIVTISEGNMDELGIRWGFTSINGNNTVGGSIENNLATIGLYEGGGDGEGEEGGVGIDDFLNVNLAATNPNAASIAFQVAKLGSDTLLDLELSALQQESKAEIISSPRLITTNKKPAYIEQGTEIPYLESSSSGATSVTFKKAVLSLKVTPQITPDNRLVLDLSVTQDRPGKVVKTGTGEAMAIDTQRIGTQVLVNNGETVVLGGIFQHSITNSVDKVPLLGDLPLLGALFRRSYENVGKSELLIFVTPKVVIQLEHHHHHH | not failed
2 | MRIVSRDRWFETRHFYNGISLIHEPYVRPFYRCNMWHVQGRERDVLVDSGSGLVSLCEQLPWLTERPLLAVASHTHFDHIAGHHEFAERLAHPAEAEILAAPDGDNTLARAYVGDEMFEAHPECPLCYAEYRVRAAPATRLIDEGDVLDLGDRVLQVLHTPGHSPGGISLWEAATQTLFSGDIVYDGPLVEDAYHSNLDDYASSLARLRELPVRTVHGGHFASFSGERLREMIVAWFRNHDR | failed
3 | MDNIPDGDWYCYECVNKATNERKCIVCGGHRPSPVGKMIYCDLCPRAYHADCYIPPLLKVPRGKWYCHGCISRAPPPKKRSAGGTSGSSSKSRRDRDRESGGSAKRRSDNSKTPAMEHMQQQQMPLAGGDSHHHHHQQPPSLNSSHDESM | failed
4 | MPGITFKEDANERGRQIEHWPLLKNGSIFVIADDGTRYFQEDAKHRHGHVYTHGSWLIPMNNQHPYLIFDQTQYDAFKQEESQAGQLPYPKFMTKLVSAPTIAQLAAKLGVPANNLQQTVTDFNHYTEVGRDFEFGRDPQTMRQLDDGPYYAIAALEHHHHHH | not failed
5 | MKKILASMAVASVAGGTVIGTAQAQTSIAPEDTQSKQASDVVTHENRVTVNVDALRVRTGPSTSNTILGLVSKEQSVPVVDETEDWYKIKYNNTEAYVNKEYATPNHIKVSTTTLRVRTGPSTSNSILGLVGEGEILQVTGEADGWYKIKYNNRDAYVSKDYVSINKSLVKSKKQKVQASRSYTVNVSSLRVRTGPSMSHPVVSVMNKGQVVQVVGEVQDWYRVKLNEGFAYINKDYVSRGTNNTANLPQSIQTESVQQNGTYIVDAAVLRVRTGPANYHPVIGGVLKGQSLQVVDIENGWYKIKYNNRTGYVSGEFVKFLKGSSTQEQTQTKEKLEQAQQPNHEQEKQEVAQQSTREQEKQEVAQQPTREQEKQEVVQQPTREQEKQEPAQNYYVKSSSLNVRSGAGMNYEVIGVVEPNQKIQVVGQQAGWYKINYNGKTGFVGMNYLSKTKVATVEEQPPSEVGTTNENTASGFIKPAAGSYTSGFEKRGGQMHYGLDIAASGTVSVSAAADGVVTRSYYSESYGNVVFISHNMNGQTYTTVYAHLNSRSVSAGQSVKQGQQIGFMGNTGQSEGQHLHFEVHKGEWNAQKSNAVNPKLYIK | failed
6 | MTLLDSMIVMIYLLFIGIAAWLFRRFSTSSNDFLQGGGTMMWWMAGATAFMTQFSAWTFTGAAAKAYEDGISVMFIFWGNALGFFVAAAFFARRYRRLRVETAMEVIRVRFGHTSEQLFTWLSFPLTLIACAIWMNGLASFFSAVFAIEMSTTILAMGVIVTLIAVSGGAWTVSVTNVIQLVLLIAITLVIGYTALQHFDSPSEVFAYTTPIYGEQIRMPSLFVMWAIAMLLQQTMSNNHTLSCYRFLTTANDKDATKAAFVAGVLFVFAPVLWFMPAWFVAAQNIDLLAIYPALEQSANNAAYLYYIQHYMPQGLLGLVMVALVAATIAPLSSAHNRNAGIVVKSLYQVWFNPNATSRQQLMVGKIATIVSGILATVTALLLASVESYSLFDMMIVFAAFIQMPINIPSLLALVSLKTPNWSGWATVMVGCVVSLFMMFIFDVQWISSSPLTPRESKDLSVVATLAVHLLVTGGFFLSTRVFYAKESPSIQQSRTALSIQLATPISDEELSPINHKQGLYVGSITALAGMLLILAGVVLAGSSQSIFVAIGCIVLLFSLFLLQPTLHSKRAWQKQKTK | failed
7 | MAATGVDKDRPRAMTSTTYLGLLLVGIQVLGFVAAIHAVLTVRTAQGAIAWATSLVFMPYLTLLPYLVFGRSRFDAYIEARRQANREMHLAAAELDWRPWVEEALAARQVSGYKGLKALVRMTRTPTLANNRVRLLVNGEASFEAMFKAISAARQVILVQFFIVRDDALGQRLQQLLLERAANGVEVFFLYDAIGSHALPHRYVERLRQGGVQMHGFSTGSGMLNRFQVNFRNHRKVVVVDGECGFVGGHNVGVEYLGEKPPLAPWRDTHMELRGPAVACLQESFAEDWYWATHSLPPLILPPQYDSEGALCQVVASGPADAQETCSLFFVEMINAAHERVWITSPYFVPDEAVMAALRLAVLRGVDVRLLIPSRPDHRTVYAASSLYALEAIRAGVKVFRYQPGFLHQKVVLVDRDTAAVGSANLDNRSFRLNFEVMVVTVDEGFAGEVEAMLEADFAESLEFTPEDRRSVRRLQQLGMRVARLVSPIL | failed
8 | MPLGSSAPPRMGGHTALAAALWPRRTDGFSAWLRMAVLIAFGSVLLALSAKVNLPLPLVPMTLQTLMVVLIGAAYGARLGAATVLAYLAEGAAGLPVFAGPVGGLAPLLGPTAGYLAGFVVAAVLVGWCADRGFDRSVAKLFAAMLAGHLAILTLGFAWLAFGLHLGLAKAWWVGVVPFLAGSLVKSALGAALLPAVRRIVDRQR | failed
9 | MMLDALQANGLMQILLLTLMAGLAMPVGAALASVERIHPRWLETEVRHSVIAFGGGALLAAVALVLVPEGTANLPMVGIVVCFAGGGISFMLLDRWLAANGTPASQLVAMLSDFVPEAMALGATFSVSSEGGILLAGIIALQNIPEGFNSYRELVDATHYRGLKIVGALALMALLGPVAGALGYFLLSDAPSVVSGIMLFAAGGILYIIFQDIAPQVRLKKHWAPPLGALAGFLLGVMGEVALSG | failed
10 | MNGDDDAKRSGKRLPDQPAKTQRTKGPVSFPSTVSLASLCEEGATASSNLDLLASCSSVQGSEDCDCEGHQPESERRLKRPRQAPWAAEPANQRRPPFDHGNSESIPPAGVQSQGTSASNGTDSSERKSTEATWSRQSVDCSTAEKLAGNLCANQVSAERSGQFYTKVNELLHDLHKERVSRQCRSPHES | failed
11 | MPVIHCNKDDSQEASSQTPFLPLGFVFTKLYICLTIYSGGDDESMDGDINKYLVLAIIGVGGLSGLVASQSTGRNFPPATANKTVGR | failed
12 | QTVAQGKLTLSVPKAVGRFVIHPLMMAFFHRYPQVDVCLRLEDRPLDFIDDGIDLALRITDTPSPGLHGKPLMPIRHVICATEAYLQQHGTPYTPQDLRSHSCISLGETPADARWKFRREGKTETVQTYGRYAANHTAVR | failed
13 | MGRGYEVISTEVCPLCKGKGKSKSVDFMKISEKDIDSFLKNGAVCEKCKGKGSIEITRPCEACEGLGKIYTCKVCGARIHNPEDAEDEICSTCARSQHVYALDESCDLEHHHHHH | not failed
14 | MPHPNRTFKIVIAPDSFKSTATTSQAAAFIAEGIQAAVQSNECEGINVEITTVPMADGGEGTSSCFEGIDITLPTTDANGRLTEATYRFDPQSETAYIDVAAASGLPAVEDELRPLTADTYGTGVLIADAQTRGARR | not failed
15 | MKIALIGASGYVGSALLKEALSRGHHVTALVSRPERIAAQANLAAAKVDVQDSAQLAEQLKGFDAVLSAFSGHAQAEQFDYFVKGIRSIIAAAKAAQAPRLLVVGGAGSLEVAPGVQLVDTPEFPEQWKASALGAREALNLLRAETELNWTLLSPSAMLQPGQRTGQFRLGKDQLLVDAEGNSHISVEDYAVAMIDELEKGEHQRSRFTVGYLEHHHHHH | not failed
16 | MATLSFGIAAAATTVRTIPRFNSRRSKITCEWDPKGVLGPAQTGHIARLEFKRRLERDSEAREAFQKQLREEKERRQALRQSRVVPDTAAELIEYFLDTEAQEIEYEIARLRGRLNDEFFAQIRLEIGQIRFAVTKTADIEDRLIELETLQKALEEGIEAYDKMQNELMTATNSLTKLLTSTDIKTTLLDMVEKNQINRSLLALLDENIANAYKGNQKEAGDYMEKIRSSVLKYLTV | failed
17 | MNQNQNKKTKIVALSMMNSQTSGNPSRGTTKFESYTFDYWQYIDTLVYWGGSSGEGIIVTPSADVIDEAHSNGVPVLGTIFLPPKEYGGKVDWVKTMLKKDEQGQYPFASQMVKVAKTYGFEGWFINEETQGLNADDAANMKALIQQVKKEDSSLQIMWYDAMTKDGKVDWQNQLNDQNATFVQDKAADAMFLNFWWTQNNLADQKLLEKSNLYAKNHNIDPYNIYAGIDVQAKDVQTPVKWNLLEKGNQATQTSIGLYAASATYTNASNWDDFQNRESAFWVNQKADPRQVDHSVNESWTGLSKYVLEKSAISGNEFNTNFNLGNGYNYFKAGQKISEMDWNDRSLAGILPSYRWIIDNEGKNKISPSFDFANAYNGGNSLKFMAEHLDAGKSSNITLFASDLKIAMGAKFSVSMRSDQALKVSAILELANGQKVSIAGDKSLTENWSKLEHHHHHH | not failed
18 | MNPKKLAFYLWLLLVAGGITAYFLYPDEINILFLEDLSEEYYYVALIIYFLLLSARGLTMIPSTPLLLAGVLTFDPLELFIVNMAGILSSSTIVYYFSKFLGFDSYFETKHGKYVRKIRRGLTDKELPVIVGWSFFPLVPTDLIVYVGSSLKIPLLKCLLGVFVGESVLNAFYIFSTNLILKL | failed
19 | MKTAWLLLLLLGVGALGGCAVNPATGKSDFVMMSEQQELGMGARYNQEILKQFPRYNDEKLQAYVQRVGERVARSSHRSNLQYHFTVIDSPDINAFALPGGYIYIHRGLIAYLGSEAELAAVLGHEVGHVTARHSVRQQSQASAWNILGQAVAIGTGVGAAGDLANVLGTAFVRGYGRDMELEADGLGAQYLARAGYDPTAMIQVVRVLKNQEDFAREEAARNGQAVQAGGYHGLFDTHPDNDRRLQEVVGPARQLANGQQEVGREVFLRHLEGMPFGDSASAGVRRGQNFYHAELDFTLSYPAGWKILNQPSALLGYPADEQSFIGMKLVPHDSRLTPAEFLRKNAGQRLAQEESLKQAGLNGYTAVVPGNPARRVAVIYQGDRAYLFVGVVKVGSLETQDDRFLSVIRSFRPLRDKERALAQPRRLHLVQVKAGQTLEQLAAGGEGSLSDSVARLRLLNDLYPSGEPRPGDWLKVVR | failed
20 | MGLFDEVVGAFLKGDAGKYQAILSWVEEQGGIQVLLEKLQSGGLGAILSTWLSNQQRNQSVSGEQLESALGTNAVSDLGQKLGVDTSTASSLLAEQLPKIIDALSPQGEVSAQANNDLLSAGMELLKGKLFR | not failed
21 | MKSIEKDKYQDIRDAVRSLCSEFDDKYHRKIDEAKAYPEEFVNKLTKAGWLAALIPEEFGGSGLGLTEASIIMEEINRSGGNSGACHGQMYNMNTLLRHGSDKQKEFWLPRIATGEWRLQSMGVTEPTAGTDTTRIKTTAVKREDRYVINGQKVWISRVQHSDWMILLVRTTPLANVKRKSEGMSIFMVDIKEAMKNGMTVRPIPNMVNHETNELFFDNLEIPEENLIGEEGMGFHYILDGLNAERTLIAAECIGDGYWFMDRVTRYTCEREVFGRPIGQNQGVQFPIAEAFIAVEAANLMRFKACELFDQHLDCGAQANMAKYLAAKASWEAANACLQFHGGYGFACEYDIERKFRETRLYQVAPISTNLILSYIAEHVLEMPRSF | failed
22 | MDHLLSGLATRLGQGPFVADRTGSYHLRIDGQSVLLLRQGDDLLLESPLEHAPLDPQRDQQGLLRALLSRVASWSRRYPQAIVLDADGRLLLQARLGLDGLDPERLERALAAQVGLLEALAPELEPLPRGLPPQAPVWRP | failed
